In patent US20130071921A1 (Pfizer, published 2013) one finds Kd and koff data, which are given here for 15 molecules.

Experiment [1] addresses T1, Recombinant human Dkk-1 (R&D Systems cat no. 1096-DK/CF), 10xHis tag at the C terminal (human, UniProt O94907 32-266).
T1 construct: the actual N-terminus of the purified protein is marked in bold italic after residue 30, but the mark is an image lost in the text; also called rhuDkk-1; hDkk-1
T1 sequence: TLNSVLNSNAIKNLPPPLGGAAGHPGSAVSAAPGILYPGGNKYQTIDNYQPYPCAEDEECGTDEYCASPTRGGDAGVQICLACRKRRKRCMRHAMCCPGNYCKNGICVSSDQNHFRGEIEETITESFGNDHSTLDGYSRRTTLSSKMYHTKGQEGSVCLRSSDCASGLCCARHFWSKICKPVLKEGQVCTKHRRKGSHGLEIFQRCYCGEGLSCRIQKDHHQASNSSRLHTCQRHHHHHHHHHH
As to the kind of experiment: theoretical: koff / estimated kon 1e6 1/Ms (SPR screening 37C). Here is the method:
(§1) For screening assays to determine binding and dissociation rates of huMabJC18 variants to human Dkk1, either BIAcore or ProteOn XPR36 (BioRad, Inc.) systems were used. For the BIAcore assay, biotinylated-human Dkk1 was captured on SA (streptavidin) BIAcore chips according to the supplier's instructions. Biotinylated-human Dkk-1 protein was diluted into HBS-EP, and injected over the chip at a concentration of 5 μg/mL. Flow times across the individual chip channels were selected to achieve an antigen density of approximately 500-600 response units (RU). HBS-EP buffer was used as running buffer. Filtered recombinant E.coli cell lysates were injected at high temperature (37° C.) for 1 min at 30 ul/min, allowing a 1-5 min dissociation phase. Surfaces were regenerated with 8 mM NaOH+8% ethanol. A positive control Fab (clone 24) was injected twice at the start of the experiment, and again at the end of the assay to assess reproducibility.
For the ProteOn assay, biotinylated human Dkk-1 was injected for 1 min at serial fold dilutions empirically determined to yield different levels of immobilization (150-3000 RU) on five channels of a ProteOn NLC Neutravidin sensor chip. The sixth channel was left unmodified to serve as a reference surface. Recombinant Fabs in filtered E. coli lysates were injected at high temperature (37° C.) for 50 sec at 20 μl/min. Running buffer consisted of PBS+1 mg/ml BSA+0.005% Tween-20. The ProteOn is configured such that each injection flows over each of the five Dkk-1 channels as well as the reference channel, and six Fab samples can be injected simultaneously. Fab dissociation from the Dkk-1 surface was monitored for 20 min. The chip surface was regenerated with a 30-sec injection of 8% EtOH, 8 mM NaOH. Clone 24 Fab was used as control. Level of binding during association, and rate of dissociation for each clone was very consistent between different ligand channels. […]

Experiment [2] has as its target T1, Recombinant human Dkk-1 (R&D Systems …). As to the kind of experiment: SPR screening 37C (BIAcore/ProteOn), Fab lysate over biotinylated human Dkk-1. How it is done: as §1
For the ProteOn assay, biotinylated human Dkk-1 was injected for 1 min at serial fold dilutions empirically determined to yield different levels of immobilization (150-3000 RU) on five channels of a ProteOn NLC Neutravidin sensor chip. The sixth channel was left unmodified to serve as a reference surface. Recombinant Fabs in filtered E. coli lysates were injected at high temperature (37° C.) for 50 sec at 20 μl/min. Running buffer consisted of PBS+1 mg/ml BSA+0.005% Tween-20. The ProteOn is configured such that each injection flows over each of the five Dkk-1 channels as well as the reference channel, and six Fab samples can be injected simultaneously. Fab dissociation from the Dkk-1 surface was monitored for 20 min. The chip surface was regenerated with a 30-sec injection of 8% EtOH, 8 mM NaOH. Clone 24 Fab was used as control. Level of binding during association, and rate of dissociation for each clone was very consistent between different ligand channels.
In general terms: SPR reads the build-up and loss of mass on a sensor chip optically.

B1: L2.4B10 (Fab, V domains shown)
VH: EVQLVESGGGLVQPGGSLRLSCAASGFTFSSYAISWVRQAPGKGLEWVASVSGWYDTYYPDSVKGRFTISRDNAKNSLYLQMNSLRAEDTAVYYCATSLENYAFDYWGQGTTVTVSS
VL: EIVLTQSPATLSLSPGERATLSCRASESVDDFGISFMNWYQQKPGQAPRLLIYAASKQGSGIPARFSGSGSGTDFTLTISSLEPEDFAVYYCQQSKEVPPTFGGGTKVEIK
notes: tested as Fab (E. coli lysate, screening mode); human kappa CL and IgG2 CH1 not included here
B1: the Kd in experiment [1] is 3.45 nM. Besides, the koff in experiment [2] worked out at 0.00345 s⁻¹.

B2: L3.1A3 (Fab, V domains shown)
VH: EVQLVESGGGLVQPGGSLRLSCAASGFTFSSYAISWVRQAPGKGLEWVASVSGWFHTYYPDSVKGRFTISRDNAKNSLYLQMNSLRAEDTAVYYCATSLRNYAFDYWGQGTTVTVSS
VL: EIVLTQSPATLSLSPGERATLSCRASESVDDFGISFINWYQQKPGQAPRLLIYAGSKQGSGIPARFSGSGSGTDFTLTISSLEPEDFAVYYCQQLKEVPPTFGGGTKVEIK
notes: as for B1
B2: the equilibrium dissociation constant (Kd) in experiment [1] was 0.184 nM. Also, in experiment [2], the koff came out at 0.00018 s⁻¹.

B3: L2.4G10 (Fab, V domains shown)
VH: EVQLVESGGGLVQPGGSLRLSCAASGFTFSSYAISWVRQAPGKGLEWVASVSGWLDTYYPDSVKGRFTISRDNAKNSLYLQMNSLRAEDTAVYYCATSLRNYAFDYWGQGTTVTVSS
VL: EIVLTQSPATLSLSPGERATLSCRASESVDDFGISFMNWYQQKPGQAPRLLIYAASKQGSGIPARFSGSGSGTDFTLTISSLEPEDFAVYYCQQSKEVPPTFGGGTKVEIK
notes: as for B1
Take B3: the equilibrium dissociation constant (Kd) in experiment [1] is 2.76 nM. Moreover, the koff in experiment [2] stood at 0.00276 s⁻¹.

B4: L2.4D11 (Fab, V domains shown)
VH: EVQLVESGGGLVQPGGSLRLSCAASGFTFSSYAISWVRQAPGKGLEWVASVSGWMDTYYPDSVKGRFTISRDNAKNSLYLQMNSLRAEDTAVYYCATSLENYAFDYWGQGTTVTVSS
VL: EIVLTQSPATLSLSPGERATLSCRASESVDDFGISFMNWYQQKPGQAPRLLIYAASKQGSGIPARFSGSGSGTDFTLTISSLEPEDFAVYYCQQSKEVPPTFGGGTKVEIK
notes: as for B1
As to B4, in experiment [1], the Kd is 3.26 nM. Moreover, the koff in experiment [2] is 0.00326 s⁻¹.

B5: L2.P4.B5 (Fab, V domains shown)
VH: EVQLVESGGGLVQPGGSLRLSCAASGFTFSSYAISWVRQAPGKGLEWVASVSGWGDTYYPDSVKGRFTISRDNAKNSLYLQMNSLRAEDTAVYYCATSYENYAFDYWGQGTTVTVSS
VL: EIVLTQSPATLSLSPGERATLSCRASESVDDFGISFMNWYQQKPGQAPRLLIYAASKQGSGIPARFSGSGSGTDFTLTISSLEPEDFAVYYCQQSKEVPPTFGGGTKVEIK
notes: as for B1
For B5, the dissociation constant (Kd) in experiment [1] is 5.32 nM. Further, the koff in experiment [2] turned out to be 0.00532 s⁻¹.

B6: L3.2H8 (Fab, V domains shown)
VH: EVQLVESGGGLVQPGGSLRLSCAASGFTFSSYAISWVRQAPGKGLEWVASVSGWLGTYYPDSVKGRFTISRDNAKNSLYLQMNSLRAEDTAVYYCATSLQNYAFDYWGQGTTVTVSS
VL: EIVLTQSPATLSLSPGERATLSCRASESVDDFGISFINWYQQKPGQAPRLLIYAGSKQGSGIPARFSGSGSGTDFTLTISSLEPEDFAVYYCQQLKEVPPTFGGGTKVEIK
notes: as for B1
Consider B6, for which the equilibrium dissociation constant (Kd) in experiment [1] was 0.555 nM. Further, the koff in experiment [2] was found to be 0.000555 s⁻¹.

B7: L3.4E6 (Fab, V domains shown)
VH: EVQLVESGGGLVQPGGSLRLSCAASGFTFSSYAISWVRQAPGKGLEWVASVSGGLGTYYPDSVKGRFTISRDNAKNSLYLQMNSLRAEDTAVYYCATSLRNYAFDYWGQGTTVTVSS
VL: EIVLTQSPATLSLSPGERATLSCRASESVDDFGISFINWYQQKPGQAPRLLIYAGSKQGSGIPARFSGSGSGTDFTLTISSLEPEDFAVYYCQQLKEVPPTFGGGTKVEIK
notes: as for B1
As for B7, in experiment [1], the Kd is 0.99 nM. Moreover, in experiment [2], the koff was found to be 0.00099 s⁻¹.

B8: L2.P4.E7 (Fab, V domains shown)
VH: EVQLVESGGGLVQPGGSLRLSCAASGFTFSSYAISWVRQAPGKGLEWVASVSGWGDTYYPDSVKGRFTISRDNAKNSLYLQMNSLRAEDTAVYYCATSLRNYAFDYWGQGTTVTVSS
VL: EIVLTQSPATLSLSPGERATLSCRASESVDDFGISFMNWYQQKPGQAPRLLIYAASKQGSGIPARFSGSGSGTDFTLTISSLEPEDFAVYYCQQSKEVPPTFGGGTKVEIK
notes: as for B1
Take B8: the Kd in experiment [1] is 5.19 nM. Further, the off-rate constant (koff) in experiment [2] was determined as 0.00519 s⁻¹.

B9: L3.4E7 (Fab, V domains shown)
VH: EVQLVESGGGLVQPGGSLRLSCAASGFTFSSYAISWVRQAPGKGLEWVASVSGWGDTYYPDSVKGRFTISRDNAKNSLYLQMNSLRAEDTAVYYCATSLQNYAFDYWGQGTTVTVSS
VL: EIVLTQSPATLSLSPGERATLSCRASESVDDFGISFINWYQQKPGQAPRLLIYAGSKQGSGIPARFSGSGSGTDFTLTISSLEPEDFAVYYCQQLKEVPPTFGGGTKVEIK
notes: tested as Fab (E. coli lysate, screening mode); human kappa CL and IgG2 CH1 not included here; printed changes identical to L3.4H2
As to B9, the dissociation constant (Kd) in experiment [1] was 0.276 nM. For the same molecule, the koff in experiment [2] was determined as 0.000276 s⁻¹.

B10: L2.P4.H3 (Fab, V domains shown)
VH: EVQLVESGGGLVQPGGSLRLSCAASGFTFSSYAISWVRQAPGKGLEWVASVSGWLDTYYPDSVKGRFTISRDNAKNSLYLQMNSLRAEDTAVYYCATSLENYAFDYWGQGTTVTVSS
VL: EIVLTQSPATLSLSPGERATLSCRASESVDDFGISFMNWYQQKPGQAPRLLIYAASKQGSGIPARFSGSGSGTDFTLTISSLEPEDFAVYYCQQSKEVPPTFGGGTKVEIK
notes: as for B1
B10: the Kd in experiment [1] was 2.74 nM. The koff in experiment [2] is 0.00274 s⁻¹.

B11: L3.1H3 (Fab, V domains shown)
VH: EVQLVESGGGLVQPGGSLRLSCAASGFTFSSYAISWVRQAPGKGLEWVASVSGWLHTYYPDSVKGRFTISRDNAKNSLYLQMNSLRAEDTAVYYCATSLENYAFDYWGQGTTVTVSS
VL: EIVLTQSPATLSLSPGERATLSCRASESVDDFGISFINWYQQKPGQAPRLLIYAGSKQGSGIPARFSGSGSGTDFTLTISSLEPEDFAVYYCQQLKEVPPTFGGGTKVEIK
notes: as for B1
Consider B11, for which the Kd in experiment [1] is 1.15 nM. Also, in experiment [2], the koff came out at 0.00115 s⁻¹.

B12: L2.P4.C10 (Fab, V domains shown)
VH: EVQLVESGGGLVQPGGSLRLSCAASGFTFSSYAISWVRQAPGKGLEWVASVSGWGDTYYPDSVKGRFTISRDNAKNSLYLQMNSLRAEDTAVYYCATSLKNYAFDYWGQGTTVTVSS
VL: EIVLTQSPATLSLSPGERATLSCRASESVDDFGISFMNWYQQKPGQAPRLLIYAASKQGSGIPARFSGSGSGTDFTLTISSLEPEDFAVYYCQQSKEVPPTFGGGTKVEIK
notes: as for B1
For B12, in experiment [1], the Kd was 4.31 nM. The koff in experiment [2] was 0.00431 s⁻¹.

B13: L3.1D7 (Fab, V domains shown)
VH: EVQLVESGGGLVQPGGSLRLSCAASGFTFSSYAISWVRQAPGKGLEWVASVSGWFRTYYPDSVKGRFTISRDNAKNSLYLQMNSLRAEDTAVYYCATSLRNYAFDYWGQGTTVTVSS
VL: EIVLTQSPATLSLSPGERATLSCRASESVDDFGISFINWYQQKPGQAPRLLIYAGSKQGSGIPARFSGSGSGTDFTLTISSLEPEDFAVYYCQQLKEVPPTFGGGTKVEIK
notes: as for B1
Turning to B13, in experiment [1], the Kd was 0.164 nM. The off-rate constant (koff) in experiment [2] is 0.000164 s⁻¹.

B14: L3.2H10 (Fab, V domains shown)
VH: EVQLVESGGGLVQPGGSLRLSCAASGFTFSSYAISWVRQAPGKGLEWVASVSGWLGTYYPDSVKGRFTISRDNAKNSLYLQMNSLRAEDTAVYYCATSLKNYAFDYWGQGTTVTVSS
VL: EIVLTQSPATLSLSPGERATLSCRASESVDDFGISFINWYQQKPGQAPRLLIYAGSKQGSGIPARFSGSGSGTDFTLTISSLEPEDFAVYYCQQLKEVPPTFGGGTKVEIK
notes: as for B1
Turning to B14, the equilibrium dissociation constant (Kd) in experiment [1] is 0.569 nM. Also, the off-rate (koff) in experiment [2] is 0.000569 s⁻¹.

B15: L3.1B12 (Fab, V domains shown)
VH: EVQLVESGGGLVQPGGSLRLSCAASGFTFSSYAISWVRQAPGKGLEWVASVSGWFGTYYPDSVKGRFTISRDNAKNSLYLQMNSLRAEDTAVYYCATSLENYAFDYWGQGTTVTVSS
VL: EIVLTQSPATLSLSPGERATLSCRASESVDDFGISFINWYQQKPGQAPRLLIYAGSKQGSGIPARFSGSGSGTDFTLTISSLEPEDFAVYYCQQLKEVPPTFGGGTKVEIK
notes: as for B1
On to B15, for which the Kd in experiment [1] is 0.21 nM. In addition, the koff in experiment [2] came to 0.00021 s⁻¹.

One may read the Kd as the equilibrium constant for the complex coming apart. What is called koff is the first-order rate constant of dissociation.
